Laboratory results taken from US20230324413A1, “RENIN-BASED ANALYSIS OF HEPCIDIN” (TAMPERE UNIVERSITY FOUNDATION SR, priority 2020, published 2023).

Biological target: T1, human renin (Homo sapiens, UniProt P00797)
T1 construct: purchased Biovision, Inc. San Francisco, CA
T1 sequence (P00797 67-406): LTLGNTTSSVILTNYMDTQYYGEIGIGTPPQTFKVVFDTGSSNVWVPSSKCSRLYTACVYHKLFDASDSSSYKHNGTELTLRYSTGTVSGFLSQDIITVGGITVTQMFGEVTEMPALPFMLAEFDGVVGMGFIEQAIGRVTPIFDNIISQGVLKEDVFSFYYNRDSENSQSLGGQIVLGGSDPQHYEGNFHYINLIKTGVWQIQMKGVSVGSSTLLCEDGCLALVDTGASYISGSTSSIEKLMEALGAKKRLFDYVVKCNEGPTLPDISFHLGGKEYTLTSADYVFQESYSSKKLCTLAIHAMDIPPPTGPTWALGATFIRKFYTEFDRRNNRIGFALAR
Experiment: Renin inhibition screening kit, kinetic fluorescence measurement of renin enzyme activity
Format: biochemical
Conditions: for Inhibition of renin activity (in words): 10 nM, 100 nM and 500 nM, FIG. 5; for Mean inhibitory effect on renin activity: 37° C, 60 min kinetic fluorescence
Text: Human hepcidin-25/LEAP-1 (hep-25, with disulfide bonds between Cys7-Cys23, Cys10-Cys13, […], and Cys14-Cys22, purity assessed by HPLC≥98.0%) was purchased from Peptides International (Peptides International Inc, Louisville, KY). N-terminal part of hepcidin, DTHFPICIF (hep-9; SEQ ID NO: 6) and DTHFP (hep-5; SEQ ID NO: 7), were synthetized by Proteogenix (Schiltigheim, France). Renin inhibition screening kit was purchased from Biovision (Biovision, Inc. San Francisco, CA). ForteBio's 96 well black plates were used in the measurements.
Hep-25, hep-9, and hep-5 were used in final sample concentrations of 10 nM, 100 nM and 500 nM to measure inhibition of renin enzyme activity. The concentrations used represent normal levels of hepcidin in human circulation. Fluorescence measurement was performed using Perkin Elmer UV/VIS Envision multimode plate reader. Excitation and emission wavelengths were 328 and 552 nm, respectively. Fluorescence was recorded every 60 s for 60 min at 37° C. Rate of renin inhibition was calculated following the manufacture's instructions.

| Inhibition of renin activity (in words) | Mean inhibitory effect on renin activity (peptide concentration 10 nM) [%] | Mean inhibitory effect on renin activity (peptide concentration 100 nM) [%] | Mean inhibitory effect on renin activity (peptide concentration 500 nM) [%] | Substance |
| --- | --- | --- | --- | --- |
| inhibited renin activity | 50.1 | 50.0 | 58.6 | DTHFP [hepcidin-5, N-terminal part of hepcidin, 5 amino acids, synthetized by Proteogenix] |
| – | 20.4 | 29.2 | 38.3 | hepcidin-25: mature bioactive 25 amino acid hepcidin peptide, SEQ ID NO: 1; purchased from Peptides International |
| inhibited renin activity | 41.25 | 41.15 | 42.65 | DTHFPICIF [hepcidin-9] |
